# Source: patent US12123009B2, “Methods and compositions for PPO herbicide tolerance in plants” (Monsanto Technology LLC, priority 2015, dated 2024)
# B1: Waterhemp: herbicide-sensitive wild-type protoporphyrinogen oxidase from Amaranthus tuberculatus (waterhemp), SEQ ID NO:21; plastid extract in Table 3 (protein, listed as Amaranthus tuberculatus)
# chain: MGNISEREEPTSAKRVAVVGAGVSGLAAAYKLKSHGLSVTLFEADSRAGGKLKTVKKDGFIWDEGANTMTESEAEVSSLIDDLGLREKQQLPISQNKRYIARDGLPVLLPSNPAALLTSNILSAKSKLQIMLEPFLWRKHNATELSDEHVQESVGEFFERHFGKEFVDYVIDPFVAGTCGGDPQSLSMHHTFPEVWNIEKRFGSVFAGLIQSTLLSKKEKGGENASIKKPRVRGSFSFQGGMQTLVDTMCKQLGEDELKLQCEVLSLSYNQKGIPSLGNWSVSSMSNNTSEDQSYDAVVVTAPIRNVKEMKIMKFGNPFSLDFIPEVTYVPLSVMITAFKKDKVKRPLEGFGVLIPSKEQHNGLKTLGTLFSSMMFPDRAPSDMCLFTTFVGGSRNRKLANASTDELKQIVSSDLQQLLGTEDEPSFVNHLFWSNAFPLYGHNYDSVLRAIDKMEKDLPGFFYAGNHKGGLSVGKAMASGCKAAELVISYLDSHIYVKMDEKTA
# B2: H_N10: E. coli wild-type HemG protoporphyrinogen oxidase, SEQ ID NO:4 (SEQ ID NO:13 lacking start methionine) (protein, listed as Escherichia coli)
# chain: MKTLILFSTRDGQTREIASYLASELKELGIQADVANVHRIEEPQWENYDRVVIGASIRYGHYHSAFQEFVKKHATRLNSMPSAFYSVNLVARKPEKRTPQTNSYARKFLMNSQWRPDRCAVIAGALRYPRYRWYDRFMIKLIMKMSGGETDTRKEVVYTDWEQVANFAREIAHLTDKPTLK
# Assays:
# [1] = tested on: hemG knockout E. coli strain; type: cell-based; conditions: LB liquid medium, acifluorfen (1 mM), flumioxazin (0.5 mM), lactofen (0.5 mM), fomesafen (1 mM), S-3100 (100 uM)
# [2] = tested on: hemG knockout E. coli strain; type: cell-based; conditions: LB medium plates (heme-free)
# soybean plantlets = test: High-throughput soybean screening for herbicide tolerance (plantlets); type: in vivo, soybean (A3555); parameters: key: 0 for poor tolerance, high damage, low green coloration; 1 for some tolerance, average damage, moderate green coloration; 2 for good tolerance, low damage, high green coloration; conditions: S-3100 spray five weeks post-transformation, scored day four
# Method in brief: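 Soybean embryo explants (A3555) transformed via A. tumefaciens; at five weeks, plantlets sprayed with two passes of S-3100 (0.3 g in 5.0 mL crop oil concentrate plus 495 mL water). After four days with at least 15 h light daily, green coloration versus damage scored 0 (poor), 1 (some) or 2 (good tolerance).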
# transgenic maize plants [3] = test: R0 multi-copy transgenic maize S-3100 spray test; type: in vivo, maize (LH244)
# Description: For maize in planta testing, immature maize (LH244) embryos were transformed with using Agrobacterium tumefaciens and standard methods known in the art. […] Leaf samples were collected from R0 plants and screened by PCR to determine the number of copies of the transgene inserted into the plant genome. […] Plants containing multiple copies (multi-copy) were sprayed as follows: […]
# F1 maize = test: Efficacy field trial of F1 maize; type: in vivo; conditions: F1 transgenic maize greenhouse and field data
# Experimental: This F1 population was segregating (50% hemizygous and 50% null) and selection for transgenic plants was not conducted prior to injury ratings. The overall average injury ratings for such a population are expected to be higher than a homogenous transgenic population since it is difficult to discern non-transgenic plants from transgenic plants. The trials were conducted at two locations with two replicates and 3 treatments per construct. Non-transgenic maize plants were used as a negative control. The herbicide application treatments were as follows: Treatment 1 was 0.036 lb ai/acre S-3100 applied at V2 followed by (fb) V4 fb V8; Treatment 2: was 0.072 lb ai/acre S-3100 applied at V2 fb V4 fb V8; Treatment 3: was 0.144 lb ai/acre S-3100 applied at V2 fb V4 fb V8. Crop Injury Percent ratings were assessed at the V2 growth stage (CIPV2) and at the V4 growth stage (CIPV4) at 5 to 7 days after treatment (the error V2 and error V4 are half of the least significant difference (LSD)). The crop injury ratings were combined for both locations.
# transgenic maize plants [4] = test: R0 transgenic maize 40 g/ha S-3100 spray test; type: in vivo
# Description: H_N60 (SEQ ID NO:3). […] These five constructs had the same promoter plus leader plus intron combination, with two different targeting peptide (TP) sequences, and the same 3′UTR sequence. Leaf samples were taken from the R0 plants and analyzed by PCR to determine the transgene copy number. Single copy plants for up to 12 unique events per construct were transplanted to pots, selfed and outcrossed to generate R1 and F1 seed, respectively, for future testing. Multi-copy plants and extra single copy plants were sprayed with 40 grams/ha 5-3100 at approximately the V5 growth stage and injury ratings were taken 7 days after treatment. The average percent (%) injury for all plants expressing each PPO enzyme and the number of plants that were deemed highly tolerant (less than 10% injury) was noted, where each plant is a unique single or multi-copy transformant.
# [5] = 40 grams/ha S-3100 at V5, 7 days after treatment, R0 plants
molecule,measurement,setting,value
B1,growth of hemG knockout E. coli strain in the presence of a PPO herbicide,[1],sensitive
same,restore growth of the transformed hemG knockout E. coli strain (PPO activity),[2],able to restore growth
B2,coloration score,soybean plantlets; TP9,1
same,coloration score,soybean plantlets; TP12,1
same,coloration score,soybean plantlets; TP13,1
same,coloration score,soybean plantlets; TP14,0
same,coloration score,soybean plantlets; TP16,1
same,coloration score,soybean plantlets; TP18,1
same,coloration score,soybean plantlets; TP19,0
same,coloration score,soybean plantlets; TP20,0
same,coloration score,soybean plantlets; TP21,0
same,coloration score,soybean plantlets; TP22,1
same,coloration score,soybean plantlets; TP23,1
same,coloration score,soybean plantlets; TP24,0
same,coloration score,soybean plantlets; TP26,0
same,coloration score,soybean plantlets; TP27,1
same,coloration score,soybean plantlets; TP31,1
same,coloration score,soybean plantlets; TP33,1
same,coloration score,soybean plantlets; TP36,0
same,Average Injury,"transgenic maize plants [3]; Treatment 1: 5 g/ha S-3100 at V5 followed by 10 g/ha at V7, total 15 g/ha, 7 days after final treatment, H_N10 in construct 6",28.9%
same,Average Injury,"transgenic maize plants [3]; Treatment 2: 10 g/ha S-3100 at V5, 7 days after treatment, H_N10 in construct 16",24.2%
same,injury rates when expressed in transgenic plants (crop tolerance to a PPO herbicide),F1 maize,reduced injury rates
same,Average Injury,transgenic maize plants [4]; [5],39.5%
same,Highly Tolerant (number of plants with less than 10% injury),transgenic maize plants [4]; [5],31
same,injury rates when expressed in transgenic plants (crop tolerance to a PPO herbicide),transgenic maize plants [4]; R0 transgenic maize data,reduced injury rates
